Laboratory results reported in paper doi:10.1101/2025.02.06.636884.

Target: cytosolic fragment of the McpN chemoreceptor (Pseudomonas aeruginosa PAO1)
Assay: ITC

CheV D238E (natural protein) gave a KD of the first binding event (high affinity, endothermic) of 8 nM, a KD of the second binding event (lower affinity, exothermic) of 3 µM and a N of the first binding event of 0.5.
